Test results published in PMC2896262 (Structure (London, England : 1993), 2009).

T1: soNrtR (Shewanella oneidensis, UniProt Q8EFJ3 1-237)
T1 sequence: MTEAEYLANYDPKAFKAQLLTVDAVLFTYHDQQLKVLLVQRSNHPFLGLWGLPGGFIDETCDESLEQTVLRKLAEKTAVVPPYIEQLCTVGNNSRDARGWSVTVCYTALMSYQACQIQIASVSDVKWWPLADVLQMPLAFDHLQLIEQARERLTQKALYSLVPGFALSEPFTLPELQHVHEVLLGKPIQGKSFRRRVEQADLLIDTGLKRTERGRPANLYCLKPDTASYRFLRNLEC

B1: N-terminal domain of soNrtR (residues 1-159) (domain or fragment, Shewanella oneidensis, UniProt Q8EFJ3 1-159, looked up)
chain: MTEAEYLANYDPKAFKAQLLTVDAVLFTYHDQQLKVLLVQRSNHPFLGLWGLPGGFIDETCDESLEQTVLRKLAEKTAVVPPYIEQLCTVGNNSRDARGWSVTVCYTALMSYQACQIQIASVSDVKWWPLADVLQMPLAFDHLQLIEQARERLTQKALY
B2: 28-nt NrtR-box DNA (dsDNA)
DNA 1: CGTAATAGTGTCTTAAAGACACTATTAC
DNA 2: CGTAATAGTGTCTTTAAGACACTATTAC

What was measured:
[1] = biological target: the molecule itself; test: crystal structure
[2] = biological target: T1, soNrtR; test: X-ray crystal structure

Binder | stoichiometry N [1] | binding result [2]
B1 | 2 | –
B2 | – | binds
